The record followed here is paper PMC7017353, “Delineating the Molecular Basis of the Calmodulin–bMunc13-2 Interaction by Cross-Linking/Mass Spectrometry—Evidence for a Novel CaM Binding Motif in bMunc13-2” (Cells, 2020).

In the test the target is recombinant CaM (UniProt P0DP23 1-149). The test can be described thus: cross-linking; photoaffinity labelling (PAL)-based competition: CaM (5 µM) with segment-C-Bpa or segment-CS-Bpa (5 µM), competitor peptides 0–250 µM; 50 mM HEPES pH 7.2, 150 mM KCl, 5 mM DTT, 2 h RT, 200 µM Ca2+ or 2 mM EGTA; UV; SDS-PAGE and MALDI-TOF-MS. Particulars: both partners purified.

Where no end group is shown, it is not given here. [ ]: non-standard residue; d: D form. Bpa = N[C@@H](Cc1ccc(C(=O)c2ccccc2)cc1)C(=O)O

Consider CINN[Bpa]KNVLREKRLRQKKLLQELV (source: synthetic peptide) [Segment-CS-Bpa], for which the binding result is given as “binds”.
